The record followed here is paper PMC2629542.

The experiment addresses DraE R86G (E. coli). The experiment in a line: SPR.

As to N-domain of CEA (domain or fragment), the fold decrease in affinity against DraE was more than 7 fold.
